B1: HP1a-CSD (residues 131-206), wild type (domain or fragment, D. melanogaster, UniProt P05205 131-206, looked up)
chain: EQDTIPVSGSTGFDRGLEAEKILGASDNNGRLTFLIQFKGVDQAEMVPSSVANEKIPRMVIHFYEERLSWYSDNED
B2: HP1a-CSD W200A (residues 131-206) (domain or fragment, D. melanogaster, UniProt P05205 131-206, looked up)
chain: B1 chain with W70A
B3: HP1a-CSD E195Q (residues 131-206) (domain or fragment, D. melanogaster, UniProt P05205 131-206, looked up)
chain: B1 chain with E65Q
B4: HP1a-CSD S199E S202E double mutant (residues 131-206) (domain or fragment, D. melanogaster, UniProt P05205 131-206, looked up)
chain: B1 chain with S69E, S72E
B5: HP1a-CSDΔ204 (residues 131-203) (domain or fragment, D. melanogaster, UniProt P05205 131-203, looked up)
chain: EQDTIPVSGSTGFDRGLEAEKILGASDNNGRLTFLIQFKGVDQAEMVPSSVANEKIPRMVIHFYEERLSWYSD

Substitutions are numbered along the chain they refer to. Names may count otherwise. Read-outs that look alike come from different tables or passages of the source. Primed or numbered codes have the meaning given here. No end group written: not given here. fluorescein″ = fluorescein label at the N-terminus of the peptide; fluorescein = fluorescein group at the N-terminus

In data set [1] the target is B1. In words: NMR titration.
Data set [2] deals with the molecule itself. In words: AUC.
Data set [3] deals with the molecule itself. In words: AUC. This is another data set of the same source.
For data set [4], the target named is B1. In words: fluorescence polarisation.
Data set [5] deals with the molecule itself. The experiment in a line: AUC. The source holds these as a separate data set.
Data set [6] concerns the molecule itself. The experiment in a line: SEC.
Data set [7] addresses B1. In words: fluorescence polarisation. The source holds these as a separate data set.
For data set [8], the target named is B2. In words: fluorescence polarisation.
For data set [9], the target named is B5. The experiment in a line: fluorescence polarisation.
Data set [10] has as its target B3. The experiment in a line: fluorescence polarisation.
Data set [11] addresses T1, HP1a-CSD A174E (residues 131-206) (D. melanogaster, UniProt P05205 131-206, A174E).
T1 sequence (looked up): B1 chain with A44E
In words: fluorescence polarisation.

Data set [12] addresses B4. In words: fluorescence polarisation.
In data set [13] the target is T2, HP1a-CSD I191E (residues 131-206) (D. melanogaster, UniProt P05205 131-206, I191E).
T2 sequence (looked up): B1 chain with I61E
The experiment in a line: fluorescence polarisation.

For TSRGSGDPRVKVFRGSSSGDY [PIWI peptide as used in NMR], the binding result in data set [1] is reported as “binds”.
In the case of B1, the Kd in data set [2] is 1.6 ± 0.4 µM; in data set [3], 3 ± 0.2 µM.
For the molecule {fluorescein″}-SEGRRLYPLLPRISPQTALSIVANDLAESD [CG15356 peptide, N-terminal fluorescein], in [4], the binding result is given as “binds”.
B2 showed a Kd in [5] of 5.8 ± 0.6 µM. In data set [6], the “stoichiometry N” value stood at 2.
With {fluorescein″}-QNISPRKLCVKINRRPYNKWLR [HP2 peptide wild type (LCVKI), N-terminal fluorescein], in data set [7], the Kd came to 0.14 ± 0.07 µM.
Turning to {fluorescein″}-PATTSPLVVLSNQLPLNSVAASY [AF10 peptide, N-terminal fluorescein], the binding result in data set [4] was “binds”.
As for fluorescein-TSRGSGDPRVKVFRGSSSGDY [PIWI peptide, N-terminal fluorescein], the Kd was greater than 2000 µM in [8]; 60 ± 2 µM in data set [9]; 97 ± 12 µM in data set [10]; 101 ± 6 µM in [11]; 1.7 ± 0.1 µM in data set [12]; 20 ± 0.5 µM in data set [7]. This molecule also displayed a Kd in [13] greater than 2000 µM.
Turning to fluorescein-QNISPRKLSVKINRRPYNKWLR [HP2 peptide Cys to Ser mutant (LSVKI), N-terminal fluorescein], the Kd in [8] was greater than 500 µM; in data set [9], 4.9 ± 0.6 µM; in data set [10] it was 3.7 ± 0.4 µM; in data set [11], 1.26 ± 0.12 µM; in [12] it was 0.044 ± 0.007 µM; in data set [7] it was 0.3 ± 0.02 µM. The Kd in data set [13] is greater than 400 µM.
As for B3, the Kd in data set [3] is 4.3 ± 0.4 µM.
Same read-out and setting: the result for B4 reads 19 ± 1 µM.
The same measure, in the same setting: the result for B5 reads 2 ± 0.2 µM.
